One substance from patent US20160058827A1 can be followed below.

This assay addresses MUC1 C-terminal subunit (MUC1-C) (human) (UniProt P15941). The assay can be described thus: cell-based or functional assay.

Sequence of MUC1 C-terminal subunit (MUC1-C) (human) (P15941 1097-1255): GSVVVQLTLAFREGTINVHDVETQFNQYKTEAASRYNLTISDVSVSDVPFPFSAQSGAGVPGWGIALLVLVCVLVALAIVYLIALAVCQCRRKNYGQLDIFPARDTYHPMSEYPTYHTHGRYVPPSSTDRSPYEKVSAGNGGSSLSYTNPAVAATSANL

Substance GO-203 (peptide) registered a half-maximal inhibitory concentration for GO-203 (BT-474/CshRNA cell growth) of 3.9 µM.
